According to US20240294645A1 (HANGZHOU SUMGEN BIOTECH, published 2024):
Each block holds one binder with its values, some of them ahead of it.

Columns and labels:
[1] = molecular target: T1, Biotinylated Human VEGF165 Protein, His, Avitag (Acro Biosystems) (human, UniProt P15692-4 27-191, biotin-labeled (site not stated; Avitag)); experiment: competition ELISA, VEGFR1 coated (competitor), biotin-labeled VEGF165 detected
T1 construct: also called biotin-labeled VEGF165; not shown: His tag and Avitag
Description: (§1) 100 μL of 2N H₂SO4 stop solution was added to each well to terminate the substrate reaction.

[2] = molecular target: T2, VEGF 121 Protein, Human, Recombinant (Sino Biological) (human, UniProt P15692-9 27-147); experiment: competition ELISA, VEGF121 coated, competitor biotin-labeled VEGFR2
T2 sequence (looked up): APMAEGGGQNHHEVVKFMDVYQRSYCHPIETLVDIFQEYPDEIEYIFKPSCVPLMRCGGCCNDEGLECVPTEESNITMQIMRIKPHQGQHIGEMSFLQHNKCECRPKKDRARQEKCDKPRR

[3] = molecular target: VEGF165 Protein, Human, Cynomolgus, Recombinant, HPLC-verified (Sino Biological) (Human, Cynomolgus, UniProt P15692-4 27-191); experiment: competition ELISA, VEGF165 coated, competitor biotin-labeled VEGFR2
Description: as §1

[4] = molecular target: T1, Biotinylated Human VEGF165 Protein, …; experiment: bridging ELISA: PD-L1 coated, sample, then biotin-labeled VEGF165

IC50 [1]: 5.05 nM | IC50 [2]: 3.29 nM | IC50 [3]: 3.5 nM
B1: bispecific fusion protein 12VF2 (bispecific antibody, human IgG1, kappa)
light: EIVLTQSPGTLSLSPGERATLSCRASQRVSSSYLAWYQQKPGQAPRLLIYDASSRATGIPDRFSGSGSGTDFTLTISRLEPEDFAVYYCQQYGSLPWTFGQGTKVEIKRTVAAPSVFIFPPSDEQLKSGTASVVCLLNNFYPREAKVQWKVDNALQSGNSQESVTEQDSKDSTYSLSSTLTLSKADYEKHKVYACEVTHQGLSSPVTKSFNRGEC
heavy: EVQLVESGGGLVQPGGSLRLSCAASGFTFSRYWMSWVRQAPGKGLEWVANIKQDGSEKYYVDSVKGRFTISRDNAKNSLYLQMNSLRAEDTAVYYCAREGGWFGELAFDYWGQGTLVTVSSASTKGPSVFPLAPSSKSTSGGTAALGCLVKDYFPEPVTVSWNSGALTSGVHTFPAVLQSSGLYSLSSVVTVPSSSLGTQTYICNVNHKPSNTKVDKRVEPKSCDKTHTCPPCPAPEFEGGPSVFLFPPKPKDTLMISRTPEVTCVVVDVSHEDPEVKFNWYVDGVEVHNAKTKPREEQYNSTYRVVSVLTVLHQDWLNGKEYKCKVSNKALPASIEKTISKAKGQPREPQVYTLPPSREEMTKNQVSLTCLVKGFYPSDIAVEWESNGQPENNYKTTPPVLDSDGSFFLYSKLTVDKSRWQQGNVFSCSVMHEALHNHYTQKSLSLSPGKGGGGSGGGGSSDTGRPFVEMYSEIPEIIHMTEGRELVIPCRVTSPNITVTLKKFPLDTLIPDGKRIIWDSRKGFIISNATYKEIGLLTCEATVNGHLYKTNYLTHRQTNTIIDVVLSPSHGIELSVGEKLVLNCTARTELNVGIDFNWEYPSSKHQHKKLVNRDLKTQSGSEMKKFLSTLTIDGVTRSDQGLYTCAASSGLMTKKNSTFVRVHE

binding result [4]: no binding
B2: SG1202 (printed 'a PD-L2 antibody 1'; used as PD-L1 antibody, apparently PD-L1 antibody 2) (antibody, V domains shown)
VH: EVQLVESGGGLVQPGGSLRLSCAASGFTFSRYWMSWVRQAPGKGLEWVANIKQDGSEKYYVDSVKGRFTISRDNAKNSLYLQMNSLRAEDTAVYYCAREGGWFGELAFDYWGQGTLVTVSS
VL: EIVLTQSPGTLSLSPGERATLSCRASQRVSSSYLAWYQQKPGQAPRLLIYDASSRATGIPDRFSGSGSGTDFTLTISRLEPEDFAVYYCQQYGSLPWTFGQGTKVEIK
notes: Only variable regions are tied to SG1202; also called PD-L1 antibody SG1202; antibody SG1202
